Data published in paper PMC9407390 (Proceedings of the National Academy of Sciences of the …, 2022).

Target: the molecule itself
Assay: crystal structure

B1: soluble C terminus (soluble domain, residues 343 to 882) of Medicago truncatula DMI1 (domain or fragment)
chain: SEVIERNHVLILGWSDKLGSLLKQLAIANKSVGGGVIVVLAEKEKEEMEMDIAKLEFDFMGTSVICRSGSPLILADLKKVSVSKARAIIVLAADENADQSDARALRVVLSLAGVKEGLRGHVVVEMSDLDNEPLVKLVGGELIETVVAHDVIGRLMIQCALQPGLAQIWEDILGFENAEFYIKRWPELDDLLFKDILISFPDAIPCGVKVAADGGKIVINPDDNYVLRDGDEVLVIAEDDDTYAPGPLPEVRKGYFPRIRDPPKYPEKILFCGWRRDIDDMIMVLEAFLAPGSELWMFNEVPEKERERKLAAGELDVFGLENIKLVHREGNAVIRRHLESLPLETFDSILILADESVEDSVAHSDSRSLATLLLIRDIQSRRLPYRDTKSTSLRLSGFSHNSWIREMQQASDKSIIISEILDSRTRNLVSVSRISDYVLSNELVSMALAMVAEDKQINRVLEELFAEEGNEMCIKPAEFYLFDQEELCFYDIMIRGRTRKEIVIGYRLANQERAIINPSEKSVPRKWSLDDVFVVLASGE
**Q.** Which “stoichiometry N” value does the source give for B1 here?
**A.** 4
